This data set concerns the target T1, RpoN (sigma-54) (Vibrio parahaemolyticus RIMD2210633) (UniProt Q87LE2).
T1 sequence: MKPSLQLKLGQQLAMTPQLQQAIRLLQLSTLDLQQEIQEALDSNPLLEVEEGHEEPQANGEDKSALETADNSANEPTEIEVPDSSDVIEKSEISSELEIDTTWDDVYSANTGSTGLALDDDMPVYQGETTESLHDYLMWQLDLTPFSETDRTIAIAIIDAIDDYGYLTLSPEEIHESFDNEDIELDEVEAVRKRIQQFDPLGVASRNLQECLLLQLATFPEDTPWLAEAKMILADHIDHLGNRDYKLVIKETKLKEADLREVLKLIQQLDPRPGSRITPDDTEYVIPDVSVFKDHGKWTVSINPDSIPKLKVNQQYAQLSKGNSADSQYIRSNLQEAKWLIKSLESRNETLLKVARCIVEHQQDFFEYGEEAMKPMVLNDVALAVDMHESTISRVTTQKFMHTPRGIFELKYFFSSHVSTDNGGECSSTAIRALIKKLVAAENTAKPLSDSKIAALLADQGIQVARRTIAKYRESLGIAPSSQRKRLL
Description: EMSA. The conditions noted are these: EMSA: 20 µl with 10 ng FAM probe, 4 µl EMSA buffer (10 mM NaCl, 0.1 mM DTT, 0.1 mM EDTA, 10 mM Tris pH 7.4), 1 µl poly-dIdC, 25 °C 0.5 h, 6% native PAGE.

Consider “GTGCCTTGTCAAAAGATATAGCCATGTTTGCCTCTACAATTAAGAACTGACCGTTATTAATAACTAAAAAACCGGAAACGCTAAAACACCTATCAGCTATTGACGTTTTAGATTGCAATAAGCAAGCCAAAGTAACTGGAATGTCGTATCACTTCGCTTACTTGAATAAAGATACACCCTGCAGAGGGAGCAGGGCAAAGTCCGACAACAGATTAGCGAGGGGAAACTCGAAATCTCATCTCATATAGACAAAATCGTCGACCTGCAGGCA (double strand) [ΔflgB promoter (RpoN site deleted)]”, for which the binding result is “no binding”.
To “TGCCTGCAGGTCGACGATATCTTAATTCGCACCACTTTAGTGCAGACGTAGATCATTTTGGTGCAATCATTTGCACCAAACTAGCATCTAAAAACACAATTCATTGAAATTAATGGAATATTTTTTTTGGCACGGTTTTGGCTTTAGTAAACACAGCATCGATTAATGAAAAGTCAAAAAGATTAATCAATGCCGGGTTCATGAATATTTCATAAGTCGAGCTTTTACCGCTTATTAACACTGGAGGTTATCCAAG (double strand) [VP0121 promoter]” belongs “binds”.
On to “TGCCTGCAGGTCGACGATCCTTGTTTTATCCCATGGTCAGCGGGCGCGAAGGCGGCACCGGACTTGGGTTGTCCATCTCACAAAATTTGATCGACCAGCACAACGGAAAAATCGACGTTGAAAGCTGGCCTGGCCACACCACTTTTACAATTTATTTGCCGATTTGACCTCACGAATGGATTTCGTTGAGCGCCAATTTACGGTTTTTGCTGCAAGGATTAGTAC (double strand) [VP0118 promoter]”, for which the binding result is “no binding”.
As for “TGCCTGCAGGTCGACGATCGCCGGAACATCGTCATTAATCGTACAAAAAGCAAAATTAAGAAAAATATAAAACAATCAATGGATTGTGCTGTTATTTAGCTTTGAGTCATTATTTTGGCGTTGATTTTGGTACATAGATTGCTTAAGTCGACTAATTATCAACTATACCTAAACTTTTAGGCGAAAGTGGTCGCGTATAAACATTAGACATACGTATTAAAGTGCGTATTCGCGTGACGCTTCAATTCGATTGAGATACCTCGCAGT (double strand) [flhA promoter]”, the entry is “no binding”.
For “TGCCTGCAGGTCGACGATCTGCAAGTGAAGCAGAAAATCGAAAGTATGTGACCTTTTGGGGTTGCCGCGTACGCGAATCATTGAGGCTTGCCATCGTGCAAGCCTTTATTTTACCTGAATTTACTACTCTAAATCCCACTTGGCACATCTTTTGCTTTTACTTGTCTAGGTGATCGGTATTTACCGATCTTATTTCGTTTTTGGGGGCAGGTATGGCGTCAGATCTTCTG (double strand) [flgK promoter]”, the binding result was “no binding”.
As for “TGCCTGCAGGTCGACGATCTTGGCTTGATAACATCATGACATTCATCTGATGCTTAGCCTGAAAACACCTCAGTTCAGGCTAAGCATGCTTTGATCTCTGGTTTGCCGCTGTTGCCGCCACATGGATCAAAATCTTGCCTCCCTTTGCAGTTTTTTTTCATTGAATATCCTTCTTGATTGCCTTTAATCTCATTCAAGTTTTTGATAAATAAGTTTATTTTTATTTTGGCATAACTATTGCTTTTACTCCGGAAGTACAGAGACTTTTTTGGAGTAA (double strand) [flgF promoter]”, the entry is “no binding”; as for “TGCCTGCAGGTCGACGATGAGCTGCTGATATGCTGGGTATGCGCCGTACAACGTTGGTTGAGAAAATGCGCAAGTATAATTTGCAGCGTTAGATCGAGCTTCAGTTCAATCACAAAAGTTATCTTTTCTGACATTAAAATCAGACATTTCTCGGTGTCAACTTATTGTCGATAACATAACGTCATGATAAATATAAAAATAGCTTGGTACGCTAATTGCTTACCAAGCTATTTTACTTTTTAGTGGCGATATTTCGACAGGCAGTGA (double strand) [flaL promoter]”, “no binding”; as for “TGCCTGCAGGTCGACGATGATATTTTATTGGCATGACATTTGCTATTTGTTGCTCAATACTAATCTGGTTGAAGTTAGCACGGACGCACTGCGTAGTATTCATCGCCTATAGATGGCGGAATAAGAATGCTCATTGATAAGTTAATCAGCAGAATCTCCGGCGCTAACTACACTAAGAGATGGAAAAGACTATCCATGTTCATAAATGGAATTGAGC (double strand) [VP1510 promoter]”, “no binding”.
Regarding “TGCCTGCAGGTCGACGATGTCCTGTCGAAAGAATTCCTAATAACAGTATCCACTTTGAGGAAATTAGAGTTTTCCCCCTAATTTTTTTGCTTTCCGTAAACCGGAAGTTTGGTTTCCACTCTTGTTTGTAAGTCATTGATAAATATAAATAAAATTTATGGCACGTATCTTGTTTGTATCTTGGCGTATTCGAGCCGACTGTAAGGAAAGATGCATGGCGATCACATTTGAAAATGCTTTAGGTGTACATCCAG (double strand) [flgB2 promoter]”, the binding result is recorded as “binds”.
As for “TGCCTGCAGGTCGACGATGTGGAATGTAATGGCCGACGCAAAGAAATGGCAGAGAAGTTGGGCATAAGCCCGCGTACTCTGCGCTACAAACTTGCCAAAATGCGTGACGCGGGTATAGATATTCCGAGTTAGGTTTCACACGCGTAGCCATAAGACAAAAGTGTGAGTAAACTATACAGCTGGCGTCTTATGGCACATAAATTGCTGTGTCAATAATTAGTTTAAATAGATAGTCAAACTTTTGGCTCAGAGGTGATA (double strand) [fliE promoter]”, the entry is “binds”; as for “TGCCTGCAGGTCGACGATGTGGAATGTAATGGCCGACGCAAAGAAATGGCAGAGAAGTTGGGCATAAGCCCGCGTACTCTGCGCTACAAACTTGCCAAAATGCGTGACGCGGGTATAGATATTCCGAGTTAGGTTTCACACGCGTAGCCATAAGACAAAAGTGTGAGTAAACTATACAGCTGGCGTCTTGTCAATAATTAGTTTAAATAGATAGTCAAACTTTTGGCTCAGAGGTGATA (double strand) [ΔfliE promoter (RpoN site deleted)]”, “no binding”.
To “TGCCTGCAGGTCGACGATTCTCTTTGCCTTAATCTTATGCCGATCAAAGCACATCGGAAACTAACGCTAAAACGGTAGCAAACCCCAACTTAGTGGAATGCAAGTCACTAAAAATCATCAATTTTGATCTTTTTTAGAAAATTTTTAATTTTCAAATTAATCATTAGTGGCAAGCGACCGCCTCTAGTTAGTGACTAGGGAATATCCCAAGGCCTGAAAGAAATAGTGATAAACTAAGGAGACTAAG (double strand) [lafA promoter]” belongs “binds”; to “TGCCTGCAGGTCGACGATTCTGTAAATAATAATTGAGAGTTGCTTCATAATAACTATTATTAGTTATAAATATCGCTTAATTTAAATCTAATTTAAAGATATAAAGGAGCGTATTTAAAATGAAGTTTTTGATACATCAATCATTAATTATCATTATTCAGATAATTTAATTAATACGAAATATGTCAATTAATAATGCTCTAGGAGATTAGC (double strand) [hcp2 promoter]”, “binds”.
As for “TGCCTGCAGGTCGACGATTTAATCAACACGTCACATTCCTAAAATGAATTAAATATTTTCAGCTTTTTAGTCGCCTTGTCTTATAGGGAAACACTAGATGTTTTCGAGAGGAAGGCGGAACACATAAGGTGGAAAATACACTTCCTCTCAAATTTAAATAGTATCGCAAGTCAATGTTTTAAAAGAATATTCAAGTTAGGCACGTATCTTGCGATAAGACATACTTTCAAGGCATAGAGTTACGCCAATTACCAATGAGAGAGGGAGTAAGCTC (double strand) [lafB promoter]”, the binding result was “no binding”.
As for “TGCCTGCAGGTCGACGATTTTTGGACTCAACGTAACATTTTTCAATTTTGCCTCTCGTCACATCGCGTGAGTATCGAGTACAAAAATAAAATTTAATGTTCACCACATCCTTGTCGCCTATTGGATTTAGAACATGATGATGAGGACCACAGC (double strand) [flgM promoter]”, the entry is “no binding”; as for “TTTTGGACCATCCGTCAGTAAATCAAACCCTTCTGGATGTATCAACTGCAGCGGTAACACTTGCGCCAATTGCGCCAATTTTTGCCCAGATTGACCGCCTATTTTAACCTCTGTCGAGCCATCGCGCTGCTTATTAATGCCGATAGGTAGCTCAAATTGATCCGAGTTCAAAAAACGACCATGAACAAACAGTTCATCACACTCATTTTGAATCACACGACCAGTGAGAGAGCTTTTGAATGAGCGACCATGCCCGAGTAAATAAATCGCTTCTAGGACAATCGTCGACCTGCAGGCA (double strand) [gyrB promoter]”, “no binding”.

The values are drawn from publication PMC9817140.
